The values below come from paper PMC9839807 (2022).

The labels stand for the following.
B1: DACT1 (dishevelled binding antagonist of beta catenin 1), wildtype, Myc-tagged [human] / DVL2 (dishevelled segment polarity protein 2), Flag(3x)-tagged [not stated] (parent complex)
chain 1: MKPSPAGTAKELEPPAPARGEQRTAEPEGRWREKGEADTERQRTRERQEATLAGLAELEYLRQRQELLVRGALRGAGGAGAAAPRAGELLGEAAQRSRLEEKFLEENILLLRKQLNCLRRRDAGLLNQLQELDKQISDLRLDVEKTSEEHLETDSRPSSGFYELSDGASGSLSNSSNSVFSECLSSCHSSTCFCSPLEATLSLSDGCPKSADLIGLLEYKEGHCEDQASGAVCRSLSTPQFNSLDVIADVNPKYQCDLVSKNGNDVYRYPSPLHAVAVQSPMFLLCLTGNPLREEDRLGNHASDICGGSELDAVKTDSSLPSPSSLWSASHPSSSKKMDGYILSLVQKKTHPVRTNKPRTSVNADPTKGLLRNGSVCVRAPGGVSQGNSVNLKNSKQACLPSGGIPSLNNGTFSPPKQWSKESKAEQAESKRVPLPEGCPSGAASDLQSKHLPKTAKPASQEHARCSAIGTGESPKESAQLSGASPKESPSRGPAPPQENKVVQPLKKMSQKNSLQGVPPATPPLLSTAFPVEERPALDFKSEGSSQSLEEAHLVKAQFIPGQQPSVRLHRGHRNMGVVKNSSLKHRGPALQGLENGLPTVREKTRAGSKKCRFPDDLDTNKKLKKASSKGRKSGGGPEAGVPGRPAGGGHRAGSRAHGHGREAVVAKPKHKRTDYRRWKSSAEISYEEALRRARRGRRENVGLYPAPVPLPYASPYAYVASDSEYSAECESLFHSTVVDTSEDEQSNYTTNCFGDSESSVSEGEFVGESTTTSDSEESGGLIWSQFVQTLPIQTVTAPDLHNHPAKTFVKIKASHNLKKKILRFRSGSLKLMTTV
chain 2: MAGSSTGGGGVGETKVIYHLDEEETPYLVKIPVPAERITLGDFKSVLQRPAGAKYFFKSMDQDFGVVKEEISDDNARLPCFNGRVVSWLVSSDNPQPEMAPPVHEPRAELAPPAPPLPPLPPERTSGIGDSRPPSFHPNVSSSHENLEPETETESVVSLRRERPRRRDSSEHGAGGHRTGGPSRLERHLAGYESSSTLMTSELESTSLGDSDEEDTMSRFSSSTEQSSASRLLKRHRRRRKQRPPRLERTSSFSSVTDSTMSLNIITVTLNMEKYNFLGISIVGQSNERGDGGIYIGSIMKGGAVAADGRIEPGDMLLQVNDMNFENMSNDDAVRVLRDIVHKPGPIVLTVAKCWDPSPQAYFTLPRNEPIQPIDPAAWVSHSAALTGTFPAYPGSSSMSTITSGSSLPDGCEGRGLSVHTDMASVTKAMAAPESGLEVRDRMWLKITIPNAFLGSDVVDWLYHHVEGFPERREARKYASGLLKAGLIRHTVNKITFSEQCYYVFGDLSGGCESYLVNLSLNDNDGSSGASDQDTLAPLPGATPWPLLPTFSYQYPAPHPYSPQPPPYHELSSYTYGGGSASSQHSEGSRSSGSTRSDGGAGRTGRPEERAPESKSGSGSESEPSSRGGSLRRGGEASGTSDGGPPPSRGSTGGAPNLRAHPGLHPYGPPPGMALPYNPMMVVMMPPPPPPVPPAVQPPGAPPVRDLGSVPPELTASRQSFHMAMGNPSEFFVDVM

This experiment covers variants of B1. Put plainly: co-immunoprecipitation (IP: anti-Myc), band ratio quantified; parent: 1; read off a plot.
On to chain 1 L823R, for which the response is approximately 0.6.
On to chain 1 T367K, for which the response is approximately 0.72.
In the case of chain 1 P669A, the response was approximately 0.69.
With chain 1 K630N, the response is approximately 0.68.
With chain 1 R568K, the response was approximately 0.69.
As for chain 1 L591F, the response is approximately 0.7.
Consider chain 1 G644D, for which the response is approximately 0.72.
